According to patent US20210032312A1 (Janssen / Centocor, published 2021):
Substitutions are numbered along the chain they refer to. Each block holds one binder with its values, some of them ahead of it.

Assays:
[1] = biological target: T1, human CD8 alpha (CD8A) on primary human CD8+ T cells (human, UniProt P01732 22-235); test: flow cytometry, human CD8+ T cells
T1 construct: whole, on cells; also called hCD8A
Experimental: (§1) Binding of the 190 ELISA hits to human and cynomologous monkey primary CD8 T cells was assessed by flow cytometry. The FN3 domain molecules were diluted to 2 μM and 0.2 μM in PBS and incubated with human or cynomologous monkey CD8+ T cells in 96-well format. After 1 hour at 4 C, the cells were washed once with PBS and then resuspended with an anti-FN3 domain antibody (PAB25) solution. Following this incubation, the cells were washed twice with PBS and a PE conjugated secondary antibody and a viability dye were added. Finally, cells were washed and resuspended in PBS for flow cytometric analysis using a BD Canto Instrument. Cells were gating on live cells and median fluorescence intensity of the bound Centyrins (PE channel) was calculated using Cytobank software.

human CD8A-Fc (in house) = biological target: T2, human CD8A-Fc (in house) (human, UniProt P01732 22-182, limits assumed); test: SPR (ProteOn), captured hCD8A-Fc
T2 construct: captured by goat anti-human Fc on the ProteOn chip; also called hCD8A-Fc; recombinant human CD8 alpha; not shown: linker/tag and Fc of human IgG1

[2] = biological target: T3, cynomolgus monkey CD8 alpha on primary cynomolgus CD8+ T cells (cynomolgus monkey, UniProt P01732 23-235 (human entry)); test: flow cytometry, cyno CD8+ T cells
T3 construct: also called Cyno CD8alpha; cyno CD8A
Experimental: as §1

T2 sequence (P01732 22-182 limits assumed): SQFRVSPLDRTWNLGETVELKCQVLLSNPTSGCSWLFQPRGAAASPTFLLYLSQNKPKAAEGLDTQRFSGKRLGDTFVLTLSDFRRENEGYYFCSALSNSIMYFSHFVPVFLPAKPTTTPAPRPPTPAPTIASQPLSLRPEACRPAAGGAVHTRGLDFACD
T1 sequence (P01732 22-235): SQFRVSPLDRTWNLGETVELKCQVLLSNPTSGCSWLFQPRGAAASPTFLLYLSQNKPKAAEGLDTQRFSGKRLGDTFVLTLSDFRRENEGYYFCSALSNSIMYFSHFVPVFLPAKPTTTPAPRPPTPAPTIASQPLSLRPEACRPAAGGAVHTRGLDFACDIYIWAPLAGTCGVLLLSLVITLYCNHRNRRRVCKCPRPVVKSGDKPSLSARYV
T3 sequence (P01732 other isoform, or with tags, fused parts or gaps limits assumed): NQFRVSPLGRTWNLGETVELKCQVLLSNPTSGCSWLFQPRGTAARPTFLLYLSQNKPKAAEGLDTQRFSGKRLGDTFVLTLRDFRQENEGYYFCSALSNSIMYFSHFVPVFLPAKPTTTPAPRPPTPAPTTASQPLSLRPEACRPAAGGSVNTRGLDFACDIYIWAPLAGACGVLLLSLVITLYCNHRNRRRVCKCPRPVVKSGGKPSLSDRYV

B1: P283DR9P1364_H11 (designed binder)
chain: LPAPKNLVVSRVTEDSARLSWTAPDAAFDSFDIAYPELPLGGEAIVLTVPGSERSYDLTGLKPGTEYFVIIWGVKGGDRSEPLSAIFTT
notes: FN3 domain
- Human T-cell Binding 0.2 uM (MFI) [1]: 834 MFI
- Human T-cell Binding 2 uM (MFI) [1]: 11500 MFI
- koff (human CD8A-Fc (in house)): 0.000964 s⁻¹
- Cyno T-cell Binding 0.2 uM (MFI) [2]: 9460 MFI
- Cyno T-cell Binding 2 uM (MFI) [2]: 60600 MFI

B2: P283FR9P1366_C2 (designed binder)
chain: LPAPKNLVVSRVTEDSARLSWTAPDAAFDSFKISYPEWPPEGEAIVLTVPGSERSYDLTGLKPGTEYAVFIWCVKGGEHSWPLSAIFTT
notes: FN3 domain
- Human T-cell Binding 0.2 uM (MFI) [1]: 4320 MFI
- Human T-cell Binding 2 uM (MFI) [1]: 41000 MFI
- koff (human CD8A-Fc (in house)): 0.000491 s⁻¹
- Cyno T-cell Binding 0.2 uM (MFI) [2]: 19300 MFI
- Cyno T-cell Binding 2 uM (MFI) [2]: 89200 MFI

B7: P283DR9P1364_H1 (designed binder)
chain: B2 chain with K32Q, P40V, E41H, A68W, F70I, C73G, E78R, H79Q
notes: FN3 domain
- Human T-cell Binding 0.2 uM (MFI) [1]: 3030 MFI
- Human T-cell Binding 2 uM (MFI) [1]: 29200 MFI
- koff (human CD8A-Fc (in house)): 0.000613 s⁻¹
- Cyno T-cell Binding 0.2 uM (MFI) [2]: 10600 MFI
- Cyno T-cell Binding 2 uM (MFI) [2]: 54000 MFI

B8: P283FR9P1366_D6 (designed binder)
chain: B2 chain with K32N, S34F, W38L, P39V, P40F, E41P, A68W, F70N, W72S, C73G
notes: FN3 domain
- Human T-cell Binding 0.2 uM (MFI) [1]: 4550 MFI
- Human T-cell Binding 2 uM (MFI) [1]: 32900 MFI
- koff (human CD8A-Fc (in house)): 0.000509 s⁻¹
- Cyno T-cell Binding 0.2 uM (MFI) [2]: 10400 MFI
- Cyno T-cell Binding 2 uM (MFI) [2]: 79600 MFI

B9: P283FR9P1366_A9 (designed binder)
chain: B1 chain with D32N, P36G, L38Y, L40G, G41P, F68W, I70P, D78E, R79L
notes: FN3 domain
- Human T-cell Binding 0.2 uM (MFI) [1]: 252 MFI
- Human T-cell Binding 2 uM (MFI) [1]: 1720 MFI
- koff (human CD8A-Fc (in house)): 0.00394 s⁻¹
- Cyno T-cell Binding 0.2 uM (MFI) [2]: 580 MFI
- Cyno T-cell Binding 2 uM (MFI) [2]: 8810 MFI

B10: P283FR9P1366_C6 (designed binder)
chain: B1 chain with D32S, L38W, L40V, G41Y, I70V, W72Y, D78N, R79Y, E81D
notes: FN3 domain
- Human T-cell Binding 0.2 uM (MFI) [1]: 483 MFI
- Human T-cell Binding 2 uM (MFI) [1]: 4540 MFI
- koff (human CD8A-Fc (in house)): 0.00143 s⁻¹
- Cyno T-cell Binding 0.2 uM (MFI) [2]: 1680 MFI
- Cyno T-cell Binding 2 uM (MFI) [2]: 26200 MFI

B11: P283FR9P1366_C4 (designed binder)
chain: B1 chain with D32N, L38W, L40V, G41R, F68W, W72I, D78E, R79D, E81W
notes: FN3 domain
- Human T-cell Binding 0.2 uM (MFI) [1]: 3750 MFI
- Human T-cell Binding 2 uM (MFI) [1]: 33800 MFI
- koff (human CD8A-Fc (in house)): 0.000536 s⁻¹
- Cyno T-cell Binding 0.2 uM (MFI) [2]: 10200 MFI
- Cyno T-cell Binding 2 uM (MFI) [2]: 63400 MFI

B13: P283DR9P1364_F2 (designed binder)
chain: B1 chain with D32W, L38W, L40V, G41P, W72Q, D78F, R79G, E81F
notes: FN3 domain
- Human T-cell Binding 0.2 uM (MFI) [1]: 6250 MFI
- Human T-cell Binding 2 uM (MFI) [1]: 39200 MFI
- koff (human CD8A-Fc (in house)): 0.000161 s⁻¹
- Cyno T-cell Binding 0.2 uM (MFI) [2]: 16900 MFI
- Cyno T-cell Binding 2 uM (MFI) [2]: 91500 MFI

Second part, the binder after the results:

- Human T-cell Binding 0.2 uM (MFI) [1]: 567 MFI
- Human T-cell Binding 2 uM (MFI) [1]: 4590 MFI
- koff (human CD8A-Fc (in house)): 0.00141 s⁻¹
- Cyno T-cell Binding 0.2 uM (MFI) [2]: 1470 MFI
- Cyno T-cell Binding 2 uM (MFI) [2]: 14200 MFI
B3: P283FR9P1366_E11 (designed binder)
chain: B1 chain with L38W, L40V, G41P, F68W, W72K, D78N, R79I, E81W
notes: FN3 domain

- Human T-cell Binding 0.2 uM (MFI) [1]: 574 MFI
- Human T-cell Binding 2 uM (MFI) [1]: 6860 MFI
- koff (human CD8A-Fc (in house)): 0.00108 s⁻¹
- Cyno T-cell Binding 0.2 uM (MFI) [2]: 3130 MFI
- Cyno T-cell Binding 2 uM (MFI) [2]: 37100 MFI
B4: P283FR9P1366_G8 (designed binder)
chain: B1 chain with L40I, I70V, W72Y, D78I, R79H, E81A
notes: FN3 domain

- Human T-cell Binding 0.2 uM (MFI) [1]: 369 MFI
- Human T-cell Binding 2 uM (MFI) [1]: 3970 MFI
- koff (human CD8A-Fc (in house)): 0.00403 s⁻¹
- Cyno T-cell Binding 0.2 uM (MFI) [2]: 2270 MFI
- Cyno T-cell Binding 2 uM (MFI) [2]: 27000 MFI
B5: P283FR9P1366_F8 (designed binder)
chain: B1 chain with D32A, L38I, P39A, L40K, G41W, W72Y, D78V, R79H, E81F
notes: FN3 domain

- Human T-cell Binding 0.2 uM (MFI) [1]: 566 MFI
- Human T-cell Binding 2 uM (MFI) [1]: 7520 MFI
- koff (human CD8A-Fc (in house)): 0.000354 s⁻¹
- Cyno T-cell Binding 0.2 uM (MFI) [2]: 2580 MFI
- Cyno T-cell Binding 2 uM (MFI) [2]: 41400 MFI
B6: P283FR9P1366_D7 (designed binder)
chain: B1 chain with D32S, L40V, G41K, I70V, D78T, R79Y, E81G
notes: FN3 domain

- Human T-cell Binding 0.2 uM (MFI) [1]: 6300 MFI
- Human T-cell Binding 2 uM (MFI) [1]: 33600 MFI
- koff (human CD8A-Fc (in house)): 0.000494 s⁻¹
- Cyno T-cell Binding 0.2 uM (MFI) [2]: 24600 MFI
- Cyno T-cell Binding 2 uM (MFI) [2]: 84300 MFI
B12: P283FR9P1366_F9 (designed binder)
chain: B1 chain with D32H, A34F, L40I, G41A, F68W, I70N, W72S, D78Y, R79E, E81W
notes: FN3 domain

- Human T-cell Binding 0.2 uM (MFI) [1]: 1530 MFI
- Human T-cell Binding 2 uM (MFI) [1]: 27800 MFI
- koff (human CD8A-Fc (in house)): 0.00176 s⁻¹
- Cyno T-cell Binding 0.2 uM (MFI) [2]: 8140 MFI
- Cyno T-cell Binding 2 uM (MFI) [2]: 87600 MFI
B14: P283FR9P1366_D12 (designed binder)
chain: B1 chain with L38W, F68W, W72L, R79Q, E81W
notes: FN3 domain

- Human T-cell Binding 0.2 uM (MFI) [1]: 632 MFI
- Human T-cell Binding 2 uM (MFI) [1]: 7670 MFI
- koff (human CD8A-Fc (in house)): 0.00121 s⁻¹
- Cyno T-cell Binding 0.2 uM (MFI) [2]: 3170 MFI
- Cyno T-cell Binding 2 uM (MFI) [2]: 40800 MFI
B15: P283FR9P1366_H3 (designed binder)
chain: B1 chain with D32A, L38W, L40I, G41K, F68W, I70V, W72Y, D78V, R79F
notes: FN3 domain
